Data from patent publication US20070022484A1 (published 2007).

Biological target: C-terminal sRL91 (N-terminal SH2 domain SH2n of p85 subunit of bovine phosphatidylinositol 3-kinase fused … (bovine (SH2n part)))
Experiment: cell-based or functional assay

C-terminal sRL91 (N-terminal SH2 domain SH2n of p85 subunit of bovine phosphatidylinositol 3-kinase fused … (bovine (SH2n part))), sequence (chain, as listed by the source limits assumed): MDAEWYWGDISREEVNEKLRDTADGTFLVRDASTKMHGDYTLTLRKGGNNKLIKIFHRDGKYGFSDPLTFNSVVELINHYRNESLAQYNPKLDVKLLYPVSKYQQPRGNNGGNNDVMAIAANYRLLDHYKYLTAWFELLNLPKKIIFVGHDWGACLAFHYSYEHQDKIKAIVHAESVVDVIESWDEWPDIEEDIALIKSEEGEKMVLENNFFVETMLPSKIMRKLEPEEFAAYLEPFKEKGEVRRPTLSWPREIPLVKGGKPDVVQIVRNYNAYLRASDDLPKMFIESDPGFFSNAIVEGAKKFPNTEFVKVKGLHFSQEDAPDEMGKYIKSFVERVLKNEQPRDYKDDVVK

luminescence activity with 10^-7 M insulin against its absence (split Renilla luciferase complementation, CHO-HIR cells expressing sRL91): 25 fold
B1: N-terminal sRL91 (N-split Renilla luciferase hRLn, split between Ser91 and Tyr92, fused through a linker to Y941 peptide, with Myc epitope) (other, not shown: small tags and cut ends)
chain: MTSKVYDPEQRKRMITGPQWWARCKQMNVLDSFINYYDSEKHAENAVIFLHGNAASSYLWRHVVPHIEPVARCIIPDLIGMGKSGKSGNGSCLSLASNNGNGRNGASLETEEAYMKMDLGPG
modifications: the 941-tyrosine residue of the Y941 peptide is phosphorylated by the insulin receptor upon insulin stimulation
